# Test results reported in article PMC11551746, “The Swi5–Sfr1 complex regulates Dmc1- and Rad51-driven DNA strand exchange proceeding through two distinct three-stranded intermediates by different mechanisms” (Nucleic Acids Research, 2024).
# T1: Dmc1 (Schizosaccharomyces pombe, UniProt O42634)
# T1 construct: purified as described previously; filament on ssDNA
# T1 sequence (O42634 1-332): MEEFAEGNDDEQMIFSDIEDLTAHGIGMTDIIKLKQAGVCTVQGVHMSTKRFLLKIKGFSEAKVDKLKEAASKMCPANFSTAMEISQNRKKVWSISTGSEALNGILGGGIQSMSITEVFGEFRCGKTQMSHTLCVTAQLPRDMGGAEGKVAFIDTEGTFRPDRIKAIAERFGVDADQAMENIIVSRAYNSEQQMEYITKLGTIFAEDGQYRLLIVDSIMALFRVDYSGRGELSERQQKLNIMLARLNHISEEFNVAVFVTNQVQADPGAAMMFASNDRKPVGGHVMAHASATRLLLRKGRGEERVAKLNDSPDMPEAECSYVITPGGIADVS
# T2: Rad51 (Schizosaccharomyces pombe, UniProt P36601)
# T2 construct: purified as described previously; filament on ssDNA
# T2 sequence (P36601 1-365): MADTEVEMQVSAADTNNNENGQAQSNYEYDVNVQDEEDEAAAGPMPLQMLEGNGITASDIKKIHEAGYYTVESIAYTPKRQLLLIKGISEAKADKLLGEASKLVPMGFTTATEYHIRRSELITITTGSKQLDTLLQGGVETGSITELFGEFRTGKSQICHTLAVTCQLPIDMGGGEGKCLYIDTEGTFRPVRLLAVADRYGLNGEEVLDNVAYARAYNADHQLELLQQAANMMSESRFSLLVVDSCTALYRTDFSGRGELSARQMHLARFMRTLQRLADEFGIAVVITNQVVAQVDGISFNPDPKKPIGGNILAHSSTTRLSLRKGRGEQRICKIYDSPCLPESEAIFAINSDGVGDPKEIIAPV
# T3: Dmc1 (Schizosaccharomyces pombe? (fission …, UniProt O42634 1-332))
# T3 sequence: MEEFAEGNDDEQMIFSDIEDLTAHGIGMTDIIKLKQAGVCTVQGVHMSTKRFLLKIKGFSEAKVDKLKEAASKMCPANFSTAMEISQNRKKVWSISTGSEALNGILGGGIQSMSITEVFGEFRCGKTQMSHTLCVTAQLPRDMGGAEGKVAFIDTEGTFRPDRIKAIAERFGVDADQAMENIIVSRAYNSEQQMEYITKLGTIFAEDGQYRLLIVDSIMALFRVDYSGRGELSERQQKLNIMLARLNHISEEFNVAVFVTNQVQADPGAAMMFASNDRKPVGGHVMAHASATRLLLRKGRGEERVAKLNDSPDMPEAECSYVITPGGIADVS
# T4: Rad51 (Schizosaccharomyces pombe? (fission …, UniProt P36601 1-365))
# T4 sequence: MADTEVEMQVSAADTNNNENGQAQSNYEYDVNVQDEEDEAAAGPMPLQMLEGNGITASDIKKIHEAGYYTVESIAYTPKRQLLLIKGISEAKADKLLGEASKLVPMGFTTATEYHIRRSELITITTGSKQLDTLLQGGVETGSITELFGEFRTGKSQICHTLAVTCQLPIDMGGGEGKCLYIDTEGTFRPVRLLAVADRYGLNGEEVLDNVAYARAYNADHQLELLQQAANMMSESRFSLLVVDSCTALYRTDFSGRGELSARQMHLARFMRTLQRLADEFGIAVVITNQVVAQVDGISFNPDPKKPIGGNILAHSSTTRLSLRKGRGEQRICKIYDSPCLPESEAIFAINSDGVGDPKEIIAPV
# Tests used:
# Dmc1 [1] = molecular target: T1, Dmc1; assay: fluorescence anisotropy of Dmc1-ssDNA filament; FRET strand exchange; assay type: binding; conditions: 1 mM AMP-PNP, 3 mM MgCl2, 100 mM KCl, pH 7.5, 25 °C, TAMRA-oligo dT (anisotropy); compared with ATP
# Rad51 [2] = molecular target: T2, Rad51; assay: fluorescence anisotropy of Rad51-ssDNA filament; assay type: binding; conditions: 1 mM AMP-PNP, 3 mM MgCl2, 100 mM KCl, pH 7.5, 25 °C, TAMRA-oligo dT; compared with ATP
# Dmc1 [3] = molecular target: T1, Dmc1; assay: FRET real-time DNA strand pairing and displacement; assay type: biochemical; conditions: 1 mM ATP, 5 mM MgCl2, 25 mM KCl, pH 7.5, 30 °C, 83-mer ssDNA, 40-83 bp dsDNA; compared with ADP
# Dmc1 [4] = molecular target: T3, Dmc1; assay: fluorescence anisotropy; 1 mM AMP-PNP, Mg2+; Hill fit; 30 mM HEPES-KOH pH 7.5, 100 mM KCl, 3 mM MgCl2 or CaCl2, 1 mM DTT, 5% glycerol, 1 mM adenine nucleotide, 3 uM (nt) TAMRA-dT72, 25 C; conditions: protein: recombinant; label: 5' TAMRA; single-stranded
# Dmc1 [5] = molecular target: T3, Dmc1; assay: fluorescence anisotropy; 1 mM ADP, Mg2+; Hill fit; 30 mM HEPES-KOH pH 7.5, 100 mM KCl, 3 mM MgCl2 or CaCl2, 1 mM DTT, 5% glycerol, 1 mM adenine nucleotide, 3 uM (nt) TAMRA-dT72, 25 C; conditions: protein: recombinant; label: 5' TAMRA; single-stranded
# Dmc1 [6] = molecular target: T3, Dmc1; assay: fluorescence anisotropy; 1 mM ATP, 3 mM Mg2+; Hill fit; 30 mM HEPES-KOH pH 7.5, 100 mM KCl, 3 mM MgCl2 or CaCl2, 1 mM DTT, 5% glycerol, 1 mM adenine nucleotide, 3 uM (nt) TAMRA-dT72, 25 C; conditions: protein: recombinant; label: 5' TAMRA; single-stranded
# Rad51 [7] = molecular target: T4, Rad51; assay: as above; conditions: protein: recombinant; label: 5' TAMRA; single-stranded
# Dmc1 [8] = molecular target: T3, Dmc1; assay: fluorescence anisotropy; 3 mM Ca2+ in place of Mg2+, ATP?; Hill fit; 30 mM HEPES-KOH pH 7.5, 100 mM KCl, 3 mM MgCl2 or CaCl2, 1 mM DTT, 5% glycerol, 1 mM adenine nucleotide, 3 uM (nt) TAMRA-dT72, 25 C; conditions: protein: recombinant; label: 5' TAMRA; single-stranded
# Dmc1 [9] = molecular target: T3, Dmc1; assay: fluorescence anisotropy; ssDNA preincubated with Swi5-Sfr1 (0.1 uM or more), ATP?, Mg2+; Hill fit; 30 mM HEPES-KOH pH 7.5, 100 mM KCl, 3 mM MgCl2 or CaCl2, 1 mM DTT, 5% glycerol, 1 mM adenine nucleotide, 3 uM (nt) TAMRA-dT72, 25 C; conditions: protein: recombinant; label: 5' TAMRA; single-stranded
molecule,measurement,setting,value
Nc1ncnc2c1ncn2[C@@H]1O[C@H](COP(=O)(O)OP(=O)(O)NP(=O)(O)O)[C@@H](O)[C@H]1O [AMP–PNP],fluorescence anisotropy of Dmc1-ssDNA filament; FRET strand exchange,Dmc1 [1],AMP–PNP strongly stabilizes the Dmc1–ssDNA filament
same,fluorescence anisotropy of Rad51-ssDNA filament,Rad51 [2],AMP–PNP significantly stabilized the Rad51 filament
Nc1ncnc2c1ncn2[C@@H]1O[C@H](COP(=O)(O)OP(=O)(O)OP(=O)(O)O)[C@@H](O)[C@H]1O [ATP],FRET real-time DNA strand pairing and displacement,Dmc1 [3],the ATP-bound form of Dmc1 is sufficient for three-stranded intermediate formation
[TAMRA]dT72 (ssDNA) DNA: TTTTTTTTTTTTTTTTTTTTTTTTTTTTTTTTTTTTTTTTTTTTTTTTTTTTTTTTTTTTTTTTTTTTTTTT,Kd,Dmc1 [4],547 nM
same,Kd,Dmc1 [5],1970 nM
same,Kd,Dmc1 [6],1220 nM
same,Kd,Rad51 [7],308 nM
same,Kd,Dmc1 [8],227 nM
same,Kd,Dmc1 [9],~510 nM
